Measurements from US20260152569A1, “ANTI-GPC1 MONOCLONAL ANTIBODY, THERAPEUTIC AND DIAGNOSTIC USES THEREOF” (CENTRO DI RIFERIMENTO ONCOLOGICO DI AVIANO, priority 2022, published 2026).
“And” between values parts separate entries of the source, which are not always exact repeats. Equal entries are not always repeated.

Columns and labels:
BXPC3 tumor [1] = assay: Therapeutic effect of doxorubicin-loaded chitosan nanobubbles in BXPC3 mouse model
Procedure: The amount of doxorubicin loaded nanobubbles used for the treatments in each group corresponded to 2 mg/kg per week of doxorubicin for each different treatment modality. Data are represented as mean±SD.
P-value was calculated using the log-rank test. Colored areas correspond to 95% confidence interval.
The survival data from the four treatments were evaluated by Kaplan-Meier curves to compare each treatment with one at time of the others. […] P-value was calculated using the log-rank test. Colored areas correspond to 95% confidence interval.
The study started when the subcutaneous BXPC3-tumor reached a volume of 75 mm^3. The humanitarian endpoints that had caused the euthanasia of mice were: one tumor dimension greater than 12 mm or ulceration of the tumor. Four groups of mice were tested: a first group of animals treated with doxo-CS NBs-C (n=6); a second group of animals treated with doxo-CS NBs (n=6); a third group of control animals treated with doxorubicin (doxo 2 mg/kg) in order to treat mice at the same concentration (2 mg/kg for a week) (n=10); a fourth group of control animals treated with PBS solution (n=8).
Mice survival was evaluated using Kaplan-Meier curves and the p-value was calculate using log rank test.

BXPC3 tumor mass [2] = assay: In vivo and ex vivo biodistribution of Cy5.5-conjugated anti-GPC1 C in BXPC3 xenograft mice; set-up: species or system athymic nude mice
Procedure: Whole-body scan of a representative mouse in prone and supine position is shown. […] Green circles enclose the tumor mass.
Data are reported as average efficiency mean±SD (n=4). P-value was calculated using the t-test, for the t-test, anti-GPC1 C was used as reference for each time point. ns: ≥0.05; *: 0.05<p≤0.01; **: 0.01<p≤0.001.
Data are reported as mean±SD (n=4). P-value was calculated using the t-test. ns: ≥0.05.
Blue represents nuclei and green represents IgMs. Scale bar corresponds to 25 μm.
Specifically, in vivo time course experiments with signal detection from 0 to 96 hours and signal evaluation every 24 hours were performed to evaluate the ability to target tumor mass and the overall biodistribution of anti-GPC1 C when injected into the mouse tail vein after conjugation with Cy5.5 for detection using the VIVOVISION IVIS®Lumina (Xenogen) in vivo imaging device (FIGS. 5A, B, C, D, E, F, G).

GPC1 protein [3] = assay: Immunofluorescence of GPC1 protein in cell lines; format: cell-based, human; conditions: JURKAT cells
Procedure: (§1) Remarkably, the same expression pattern as flow cytometry analysis was obtained by immunofluorescence analysis with anti-GPC1 C. […] Thus, the results of immunofluorescence analysis confirmed the ability of anti-GPC1 C to detect the GPC1 protein that was observed when flow cytometry was performed (FIGS. 1A, 1B). • c) Anti-GPC1 C was also shown to specifically recognize GPC1 protein in GBM tissue samples from surgical resection.

GPC1 protein [4] = molecular target: T1, GPC1 protein (Homo sapiens, UniProt P35052); assay: Immunofluorescence of GPC1 protein in GBM, liver and lung tissue; set-up: specifically recognize GPC1 protein in GBM tissue samples from surgical resection; from tissue; host or cells: glioblastoma (GBM) tissue from surgical resection; healthy liver and lung tissue
T1 sequence (P35052 24-530): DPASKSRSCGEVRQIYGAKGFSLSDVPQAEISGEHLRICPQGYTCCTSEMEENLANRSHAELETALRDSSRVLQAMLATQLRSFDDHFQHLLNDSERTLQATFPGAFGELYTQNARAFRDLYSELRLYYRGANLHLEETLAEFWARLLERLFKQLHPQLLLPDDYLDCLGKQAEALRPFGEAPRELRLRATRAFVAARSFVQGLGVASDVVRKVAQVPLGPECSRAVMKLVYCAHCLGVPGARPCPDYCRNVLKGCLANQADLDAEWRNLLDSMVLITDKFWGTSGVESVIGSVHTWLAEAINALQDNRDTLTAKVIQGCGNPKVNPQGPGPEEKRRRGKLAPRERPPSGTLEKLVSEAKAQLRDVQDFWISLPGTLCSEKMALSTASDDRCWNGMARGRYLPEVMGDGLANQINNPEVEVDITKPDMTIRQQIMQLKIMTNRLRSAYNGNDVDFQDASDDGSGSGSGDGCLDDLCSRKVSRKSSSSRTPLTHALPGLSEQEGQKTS
Procedure: Scale bar corresponds to 50 μm.
as §1

GPC1 protein [5] = molecular target: T1, GPC1 protein; assay: Flow cytometry analysis of GPC1 expression in cell lines; format: cell-based; set-up: endogenous in cells; host or cells: BXPC3, U87MG, T98G (GPC1-expressing); JURKAT (no GPC1); conditions: GPC1-expressing BXPC3, U87MG and T98G cell lines
Procedure: as §1

BXPC3 tumor mass [6] = assay: Complement-dependent cytotoxicity in BXPC3 tumor mass (hematoxylin-eosin, immunofluorescence); conditions: compared with murine IgM pool or PBS
Procedure: The nuclei are stained in purple, the cytoplasm is stained in pink.
Blue represents nuclei and green represents the signal related to the immunological cell biomarkers (CD14 and CD56, respectively).
Blue represents nuclei and green represents the signal related to the complement system effectors (C1q, C3, C9, respectively).
To better characterize the source of cell death, the presence of complement system effectors, but also the recruitment of macrophages, and NK cells was also analyzed by immunofluorescence analysis (FIGS. 7A, 7B).
In particular, the involvement of the complement system was investigated, by analyzing C1q, C3 (C3b, iC3b, C3c), and C9.

GPC1 protein [7] = molecular target: T2, GPC1 protein (Homo sapiens, UniProt P35052); assay: Immunofluorescence of GPC1 protein in BXPC3 xenograft tumor masses and mouse organs; set-up: species or system athymic nude mice; conditions: tumor masses of BXPC3 xenografts
T2 construct: in tumor masses of xenografts obtained by subcutaneous injection of BXPC3 into athymic nude mice; from tissue; host or cells: BXPC3 xenograft tumour masses from athymic nude mice; organs of the same mice as negative control
T2 sequence (P35052 24-530 limits assumed): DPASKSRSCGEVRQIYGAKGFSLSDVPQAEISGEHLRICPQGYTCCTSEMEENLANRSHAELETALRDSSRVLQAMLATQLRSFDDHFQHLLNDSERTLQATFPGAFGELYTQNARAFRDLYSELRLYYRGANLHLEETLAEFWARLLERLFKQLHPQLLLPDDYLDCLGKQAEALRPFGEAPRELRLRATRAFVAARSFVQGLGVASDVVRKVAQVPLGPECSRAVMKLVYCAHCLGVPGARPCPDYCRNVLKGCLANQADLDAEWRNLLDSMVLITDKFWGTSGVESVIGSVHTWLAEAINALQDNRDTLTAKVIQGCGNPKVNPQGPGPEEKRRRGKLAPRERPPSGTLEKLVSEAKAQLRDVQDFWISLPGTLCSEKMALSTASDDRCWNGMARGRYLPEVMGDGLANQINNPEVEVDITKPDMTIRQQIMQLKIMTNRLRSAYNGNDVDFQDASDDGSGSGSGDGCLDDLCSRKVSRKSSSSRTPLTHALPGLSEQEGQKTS
Procedure: (§2) Scale bar corresponds to 25 μm.
as §1

GPC1 protein [8] = assay: as above; set-up: species or system athymic nude mice; conditions: organs of the xenograft mice
Procedure: as §2, §1

BXPC3 tumor [9] = tested on: BXPC3 tumor
Procedure: Experimental endpoint was set up at day 50. Untreated mice (orange line) were used as controls. Data were visualized using Kaplan-Meier analysis, p-value of 0.00016 was calculated using the log rank test.
Data are represented as mean±standard error (SE).
The treatment procedure started when the tumor reached a volume of 75 mm^3, and when possible, it was stopped at day 42. For mice reaching the day 42, the final experimental endpoint was set up at day 50 from the beginning of the treatment procedure.

GPC1 protein [10] = molecular target: T1, GPC1 protein; assay: Immunofluorescence of GPC1 protein in cell lines; format: cell-based; set-up: endogenous in cells; host or cells: BXPC3, U87MG, T98G (GPC1-expressing); conditions: BXPC3, U87MG and T98G cell lines
Procedure: as §1

GPC1 protein [11] = assay: Flow cytometry analysis of GPC1 expression in cell lines; format: cell-based, human; conditions: JURKAT cell line (complete absence of GPC1 protein)
Procedure: as §1

[12] = i.v., Cy5.5 conjugate, in vivo imaging
[13] = 7 mice, i.p. 38 micrograms twice a week

COc1cccc2c1C(=O)c1c(O)c3c(c(O)c1C2=O)C[C@@](O)(C(=O)CO)C[C@@H]3O[C@H]1C[C@H](N)[C@H](O)[C@H](C)O1 [Doxo, doxorubicin]
Mean survival ± S.D. (BXPC3 tumor [1]; 2 mg/kg doxorubicin per week): 13.9 ± 1.59 days
HR (BXPC3 tumor [1]; reference treatment: Untreated): 0.19

B1: anti-GPC1 C: anti-GPC1 IgM monoclonal antibody of the invention, heavy chain variable region SEQ ID NO: 13, light chain variable region SEQ ID NO: 14 (antibody, listed as Mus musculus, V domains shown)
VH: QVQLQQSDAELVKPGASVKISCKASGYTFTDHAIHWVKQKPEQGLEWIGYISPGNGDIKYNEKFKGKATLTADKSSSTAYMQLNSLTSEDSAVYFCKRYAYWGQGTLVTVSA
VL: DVLMTQTPLSLPVSLGDQASISCRSSQSIVHSNGNTYLEWYLQKPGQSPKLLIYKVSNRFSGVPDRFSGSGSGTDFTLKISRVEAEDLGVYYCFQGSHVPWTFGGGTKLEIKP
modifications: IgM constant regions
ex vivo accumulation in the tumor mass compared to the IgM pool (BXPC3 tumor mass [2]; 96 hours after administration, IVIS Lumina): higher accumulation
ex vivo immunofluorescence detection in the BXPC3 tumor mass (BXPC3 tumor mass [2]; 96 hours after injection): still detected
time remaining in the tumor (BXPC3 tumor mass [2]; ex vivo immunofluorescence): at least 96 hours
peak of accumulation on the tumor mass (BXPC3 tumor mass [2]; i.v., Cy5.5 conjugate, BXPC3 xenograft, imaging every 24 h from 0 to 96 h): 72 h
signal in the kidneys and liver (BXPC3 tumor mass [2]; [12]): A clear signal
tumor mass signal at 96 hours (BXPC3 tumor mass [2]; [12]): maintained up to 96 hours
GPC1 protein signal by immunofluorescence (GPC1 protein [3]): no signal was observed
GPC1 protein signal by immunofluorescence (GPC1 protein [4]; GBM tissue samples from surgical resection): a specific signal was observed
GPC1 protein signal by immunofluorescence (GPC1 protein [4]; healthy tissues (liver and lung)): no signal corresponding to GPC1 protein was detected
GPC1 protein recognition by flow cytometry (GPC1 protein [5]): specifically recognize the GPC1 protein
tumor cell death by hematoxylin-eosin staining (BXPC3 tumor mass [6]; 96 hours): clear indicator of cell death
complement system deposition (C1q, C3, C9), macrophage and NK cell recruitment in tumors (BXPC3 tumor mass [6]; immunofluorescence): high degree of complement system deposition (C1q, C3, C9), macrophage and NK cell recruitment
GPC1 protein recognition by immunofluorescence (GPC1 protein [7]): specifically recognize the GPC1 protein
GPC1 protein signal by immunofluorescence (GPC1 protein [8]): no signals were obtained
% survival at day 50 (BXPC3 tumor [9]; [13]): 57.1%
Mean day of euthanasia/sacrifice (BXPC3 tumor [9]; [13]): 42.7
Day of end point (BXPC3 tumor [9]; individual mouse, i.p. 38 micrograms twice a week until day 42, experimental endpoint day 50): 28 and 29 and 42 and 50 (4×)
complete remission of the tumor mass (BXPC3 tumor [9]; observed in one animal): complete remission
survival time intervals versus PBS-treated mice (BXPC3 tumor [9]; p=0.00016, log-rank test): significantly longer
toxicity (weight loss, diarrhea, vomiting, convulsions, dehydration, tachypnea, dyspnea, motionless) (BXPC3 tumor [9]; treated group): no evidence of toxicity
GPC1 protein signal by immunofluorescence (GPC1 protein [10]): a signal corresponding to the GPC1 protein was observed
GPC1 protein signal by flow cytometry (GPC1 protein [11]): no signals corresponding to the presence of the GPC1 protein
